T1: Recombinant Human GFRα-1/GDNF Rα-1 Fc Chimera (human, UniProt P56159 25-429)
T1 construct: Purchased Fc chimera; It was captured on protein A in Biacore and coated on the plate in ELISA; also called GFRα1-Fc; recombinant human GFRα1-Fc chimera, carrier-free; not shown: Fc part of a purchased Fc chimera
T1 sequence (looked up): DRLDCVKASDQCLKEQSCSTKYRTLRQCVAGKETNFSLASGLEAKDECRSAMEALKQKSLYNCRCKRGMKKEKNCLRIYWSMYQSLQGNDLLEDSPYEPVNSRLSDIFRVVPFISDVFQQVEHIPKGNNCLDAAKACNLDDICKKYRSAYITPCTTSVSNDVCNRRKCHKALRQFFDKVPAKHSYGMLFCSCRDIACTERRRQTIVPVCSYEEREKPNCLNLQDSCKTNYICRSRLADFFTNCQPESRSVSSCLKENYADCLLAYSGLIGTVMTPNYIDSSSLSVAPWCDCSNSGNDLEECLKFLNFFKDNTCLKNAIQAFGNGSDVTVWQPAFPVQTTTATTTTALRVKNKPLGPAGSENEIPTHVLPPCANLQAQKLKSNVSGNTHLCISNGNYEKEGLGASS

T2: Recombinant Rat GFRα-1/GDNF Rα-1 Fc Chimera (rat, UniProt Q62997 25-445)
T2 construct: Purchased Fc chimera; not shown: Fc part of a purchased Fc chimera
T2 sequence (looked up): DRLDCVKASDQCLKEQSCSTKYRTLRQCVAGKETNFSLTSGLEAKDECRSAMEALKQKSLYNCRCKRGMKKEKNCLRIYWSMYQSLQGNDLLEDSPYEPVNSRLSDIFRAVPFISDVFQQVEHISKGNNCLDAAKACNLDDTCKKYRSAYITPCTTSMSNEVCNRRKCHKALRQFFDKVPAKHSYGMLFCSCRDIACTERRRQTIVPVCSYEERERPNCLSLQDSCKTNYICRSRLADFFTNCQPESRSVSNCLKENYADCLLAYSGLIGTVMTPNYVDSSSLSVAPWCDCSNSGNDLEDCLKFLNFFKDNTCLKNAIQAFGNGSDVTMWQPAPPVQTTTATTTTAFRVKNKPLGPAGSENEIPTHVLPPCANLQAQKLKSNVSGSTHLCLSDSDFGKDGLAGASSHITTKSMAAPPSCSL

T3: Recombinant Human GFRα-2/GDNF Rα-2 Fc Chimera (human, UniProt O00451 22-441)
T3 construct: Purchased Fc chimera; not shown: Fc part of a purchased Fc chimera
T3 sequence (looked up): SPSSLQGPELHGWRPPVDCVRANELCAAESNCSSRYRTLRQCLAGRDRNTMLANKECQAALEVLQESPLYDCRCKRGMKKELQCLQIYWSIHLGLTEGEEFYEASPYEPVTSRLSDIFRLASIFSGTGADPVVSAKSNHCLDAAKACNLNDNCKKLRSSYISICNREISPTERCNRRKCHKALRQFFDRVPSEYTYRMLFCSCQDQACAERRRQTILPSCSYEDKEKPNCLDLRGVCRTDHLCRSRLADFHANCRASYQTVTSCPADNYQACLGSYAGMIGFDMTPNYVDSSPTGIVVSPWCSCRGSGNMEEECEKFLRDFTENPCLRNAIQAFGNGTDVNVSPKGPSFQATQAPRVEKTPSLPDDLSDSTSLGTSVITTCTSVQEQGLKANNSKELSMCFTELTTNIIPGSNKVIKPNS


Columns and labels:
[1] = biological target: T1, Recombinant Human GFRα-1/GDNF Rα-1 Fc …; test: SPR (Biacore 2000), GFRα1-Fc captured on protein A, GDNFv as analyte, 1:1 Langmuir, 25 C
Procedure: (§1) A Biacore® 2000 instrument is used to measure the binding kinetics of GDNFv to human and rat GDNF family receptors (GFRα1 and GFRα2). Measurements are performed at 25° C. Samples are dissolved in HBS-EP buffer (150 mM sodium chloride, 3 mM EDTA, 0.005% (w/v) surfactant P-20, pH 7.4). Protein A, Staphylococcus aureus is immobilized on flow cells 1 to 4 of a CM4 sensor chip (GE Healthcare #BR-1005-39) at a level of ˜200 response units (RUs) using amine coupling chemistry to capture GFR Fc chimera (Recombinant Human GFRα-1/GDNF Rα-1 Fc Chimera; Recombinant Human GFRα-2/GDNF Rα-2 Fc Chimera; Recombinant Rat GFRα-1/GDNF Rα-1 Fc Chimera; Recombinant Mouse GFRα-2/GDNF Rα-2 Fc Chimera).
(§2) Binding is evaluated using multiple cycles. Each cycle consists of the following steps: 1) injection of about 10 μL of GFR at a concentration of ˜1.0 μg/mL and a flow rate of 10 μL/min., aiming at a capture of 120-150 RUs; 2) injection of 250 μL of GDNFv at a flow rate of 50 μL/min., in a final concentration rage between 10 nM and 0.04 nM followed by […]. for dissociation; and 3) regeneration using about 30 μL of 10 mM glycine hydrochloride, pH 1.5. Association and dissociation rates for each cycle are evaluated using a “1:1 (Langmuir) binding” model in the BIAevaluation software, version 4.1.

[2] = biological target: T2, Recombinant Rat GFRα-1/GDNF Rα-1 Fc …; test: SPR (Biacore 2000), rat GFRα1-Fc captured on protein A, GDNFv as analyte, 1:1 Langmuir, 25 C
Procedure: as §1, §2

[3] = biological target: T3, Recombinant Human GFRα-2/GDNF Rα-2 Fc …; test: SPR (Biacore 2000), human GFRα2-Fc captured on protein A, GDNFv as analyte, 1:1 Langmuir, 25 C
Procedure: as §1, §2

[4] = biological target: human c-Ret (human, UniProt P07949 29-1114, phosphorylation at Y1016 is the readout); test: cell-based or functional assay
[5] = biological target: T1, Recombinant Human GFRα-1/GDNF Rα-1 Fc …; test: Biacore (SPR), GFRα-1; 4 C sample of the 4-week stability comparison
[6] = biological target: T1, Recombinant Human GFRα-1/GDNF Rα-1 Fc …; test: ELISA, plate-bound human GFRα1-Fc; 4 C sample
Procedure: GDNF wild type and variants are tested in an ELISA assay, in which binding of the GDNF proteins to the plate-bound receptor (GFRα1) is measured. A “no GDNF” condition and/or an “irrelevant protein” condition are used as negative controls.
(§3) Each well of a 96-well plate (Greiner 655081 Immunobind ELISA plates) is coated with 70 μl of human GFRα1 (recombinant human GFRα1-Fc chimera, carrier-free) at 1 μg/ml in carbonate buffer, pH 9.6. If an irrelevant receptor is coated, it is an irrelevant Fc chimera and is coated at the same concentration as GFRα1. The plates are sealed and incubated at 4° C. overnight. The wells are aspirated and washed twice with washing buffer (20 mM Tris (hydroxymethyl) aminomethane, pH 7.4, 0.15 M NaCl, 0.1% Tween-20), using an automatic plate washer. The plates are blocked with 200 μl blocking buffer per well (3% Carnation Instant milk in the above washing buffer) for at least 1 hour at room temperature. Plates are washed twice with washing buffer.
GDNF proteins are serially diluted into blocking buffer at an appropriate concentration range, typically beginning at 5 μg/ml and serially diluting 1:10. A no GDNF control is used, which consists of blocking buffer alone. 50 μl of each GDNF solution is added to the GFRα1 coated wells in triplicate. The plates are incubated for 1.5 hours at room temperature. The wells are then washed 3 times with washing buffer.

[7] = biological target: T3, Recombinant Human GFRα-2/GDNF Rα-2 Fc …; test: SPR (Biacore 2000), human GFRα2-Fc captured on protein A, GDNF as analyte, 1:1 Langmuir, 25 C
Procedure: as §1, §2

[8] = biological target: T1, Recombinant Human GFRα-1/GDNF Rα-1 Fc …; test: ELISA, plate-bound human GFRα1-Fc; upper end of the 95% confidence range, n = 8
Procedure: as §3, with “buffer. […]” for “buffer.”
(§4) A 50 μl aliquot of horseradish peroxidase-conjugated streptavidin (Jackson ImmunoResearch, catalog #016-030-084), diluted 1:1000 in blocking buffer, is added to each well and incubated for 20-30 minutes at room temperature. […] The absorbance of the wells is read at 490 nm on a Molecular Devices SpectraMax250 plate reader. The average absorbance for the triplicate wells for each condition are determined, and the resulting values are processed for EC₅₀ calculation with Graph Pad Prism software to provide a 95% confidence range.

[9] = biological target: T1, Recombinant Human GFRα-1/GDNF Rα-1 Fc …; test: ELISA, plate-bound human GFRα1-Fc; lower end of the 95% confidence range, n = 8
Procedure: as §3, with “buffer. […]” for “buffer.”
as §4

[10] = biological target: T1, Recombinant Human GFRα-1/GDNF Rα-1 Fc …; test: SPR (Biacore 2000), GFRα1-Fc captured on protein A, GDNF as analyte, 1:1 Langmuir, 25 C; in the presence of 400 mM NaCl

Sequence of human c-Ret (P07949 29-1114): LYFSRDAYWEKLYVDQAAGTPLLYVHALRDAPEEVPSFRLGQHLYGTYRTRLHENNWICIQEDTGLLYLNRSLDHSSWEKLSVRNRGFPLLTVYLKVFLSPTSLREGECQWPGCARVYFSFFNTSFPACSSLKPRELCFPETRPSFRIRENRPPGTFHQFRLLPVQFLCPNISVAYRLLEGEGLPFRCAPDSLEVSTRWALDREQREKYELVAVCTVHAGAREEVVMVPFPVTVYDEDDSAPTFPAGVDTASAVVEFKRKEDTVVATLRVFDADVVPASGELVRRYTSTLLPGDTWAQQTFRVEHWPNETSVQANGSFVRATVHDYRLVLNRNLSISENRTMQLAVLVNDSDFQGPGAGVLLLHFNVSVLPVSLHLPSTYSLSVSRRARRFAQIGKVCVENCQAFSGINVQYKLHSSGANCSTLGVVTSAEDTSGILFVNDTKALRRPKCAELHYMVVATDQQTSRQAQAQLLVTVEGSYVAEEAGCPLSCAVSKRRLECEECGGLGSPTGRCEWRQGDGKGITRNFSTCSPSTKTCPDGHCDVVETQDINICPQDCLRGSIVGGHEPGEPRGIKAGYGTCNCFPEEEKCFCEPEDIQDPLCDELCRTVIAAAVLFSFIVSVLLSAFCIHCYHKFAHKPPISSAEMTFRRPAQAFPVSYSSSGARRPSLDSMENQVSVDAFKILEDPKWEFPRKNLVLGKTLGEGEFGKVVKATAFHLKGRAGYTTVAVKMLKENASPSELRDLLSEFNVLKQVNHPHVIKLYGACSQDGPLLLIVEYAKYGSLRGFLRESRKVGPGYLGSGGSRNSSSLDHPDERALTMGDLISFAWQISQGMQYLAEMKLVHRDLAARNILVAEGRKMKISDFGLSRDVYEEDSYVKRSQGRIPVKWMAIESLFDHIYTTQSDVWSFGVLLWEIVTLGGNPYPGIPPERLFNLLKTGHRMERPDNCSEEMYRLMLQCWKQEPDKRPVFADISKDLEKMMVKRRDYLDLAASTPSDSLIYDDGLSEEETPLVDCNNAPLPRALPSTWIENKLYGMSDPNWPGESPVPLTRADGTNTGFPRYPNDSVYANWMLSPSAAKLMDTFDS

Kd [1] | koff [1] | kon [1] | c-Ret phosphorylation at Y1016, EC50 [4] | Kd [5] | Binder | further results
0.047 nM | 0.00016 s⁻¹ | 3.9e+06 M⁻¹ s⁻¹ | – | – | E. coli-Δ31-N38Q-D95E-GDNF (SEQ ID NO: 9) (ligand, also called GDNF variant 2; clone D9) RGQRGKQRGCVLTAIHLNVTDLGLGYETKEELIFRYCSGSCDAAETTYDKILKNLSRNRRLVSEKVGQACCRPIAFDDDLSFLDDNLVYHILRKHSAKRCGCI | –
0.035 nM | 0.00016 s⁻¹ | 5e+06 M⁻¹ s⁻¹ | – | – | E. Coli-Δ31-N38Q-K84A-R88K-R90K-D95E-GDNF (SEQ ID NO: 12) (ligand, also called Δ31-N38Q-KAKKE; GDNF variant 3) RGQRGKQRGCVLTAIHLNVTDLGLGYETKEELIFRYCSGSCDAAETTYDKILANLSKNKRLVSEKVGQACCRPIAFDDDLSFLDDNLVYHILRKHSAKRCGCI | –
0.029 nM | 0.00014 s⁻¹ | 6.2e+06 M⁻¹ s⁻¹ | 8 to 15 ng/mL | 0.029 nM | CHO-Δ31-N38Q-K84A-R88K-R90K-D95E-GDNF (SEQ ID NO: 12) (ligand, N-glycosylated at N49 (numbering of mature GDNF), Expressed in CHO cells; also called Δ31-N38Q-KAKKE; GDNF variant 3) RGQRGKQRGCVLTAIHLNVTDLGLGYETKEELIFRYCSGSCDAAETTYDKILANLSKNKRLVSEKVGQACCRPIAFDDDLSFLDDNLVYHILRKHSAKRCGCI | Kd [2]: 0.021 nM; koff [2]: 0.00021 s⁻¹; kon [2]: 9.9e+06 M⁻¹ s⁻¹; Kd [3]: 0.044 nM; koff [3]: 0.00042 s⁻¹; kon [3]: 9.6e+06 M⁻¹ s⁻¹
– | – | – | 8 to 15 ng/mL | – | CHO Δ31-N38Q-K84A-R88K-R90K-D95E-K125E-R130E GDNF (SEQ ID NO: 15) (ligand) RGQRGKQRGCVLTAIHLNVTDLGLGYETKEELIFRYCSGSCDAAETTYDKILANLSKNKRLVSEKVGQACCRPIAFDDDLSFLDDNLVYHILREHSAKECGCI | –
0.044 nM | 0.00017 s⁻¹ | 4.2e+06 M⁻¹ s⁻¹ | – | – | E. Coli-Δ31-GDNF (SEQ ID NO: 8) (ligand, The NdeI start codon encodes a Met before R32; also called Delta-31 GDNF; Variant 1) RGQRGKNRGCVLTAIHLNVTDLGLGYETKEELIFRYCSGSCDAAETTYDKILKNLSRNRRLVSDKVGQACCRPIAFDDDLSFLDDNLVYHILRKHSAKRCGCI | –
– | – | – | 8 to 15 ng/mL | 0.064 nM | E. Coli-WT-GDNF (SEQ ID NO: 3) (ligand, Expressed in E. coli, not glycosylated; also called WT E. coli GDNF; WT-E. coli GDNF) MSPDKQMAVLPRRERNRQAAAANPENSRGKGRRGQRGKNRGCVLTAIHLNVTDLGLGYETKEELIFRYCSGSCDAAETTYDKILKNLSRNRRLVSDKVGQACCRPIAFDDDLSFLDDNLVYHILRKHSAKRCGCI | EC50 [6]: 0.4 nM; Kd [7]: 0.1 nM; koff [7]: 0.00026 s⁻¹; kon [7]: 2.4e+06 M⁻¹ s⁻¹; EC50 [8]: 0.3 to 0.4 nM; EC50 [9]: 0.3 to 0.4 nM; Kd [10]: 0.064 nM; koff [10]: 0.00035 s⁻¹; kon [10]: 6e+06 M⁻¹ s⁻¹
